This series in a line: label from the status in PepcDB records.
On to “MIGQTDQNIVITYSANIQQVKILYVDEKGSEVSSMLLKGNTDQTVNVSYSVPDHWIAISGQDSPLQYTFKAKDNKNIVIRIGHKLEDQENDIHKIIRNVNIVNPDGSVAKVSQTAIFTRVHQRDEVTGEEVYGNWDKISQDFNAIDIPKIFGYTATSSVGKMTVTPDSQSENITITYTADIQNNKIVIIDDESHGSQINTVGFTGKTGKSIAWQVTIPENYDLAAGGKISGNYTFNAVNQIPIEVHVRHKHVQDDESKSVTRTIVTNLPGLDKSEIVQTVTFSRIIDKDLVDGN”, for which the protein production result is listed as “failed”.

Consider “MIHAVAPCCPHAPRTTWEFHLRLLPLATALTLAVAMGVTPAQENRLPDIGSSAGELLTPARQAEYGKMMLAELRNYDYVLDDPLITDWLQTMGTRLGANSDQPQQPFTFFMLRDRQINAFATLGGYVAVNAGLVLTAEREDEVAAVLSHEIAHVTQQHVLRAVERAQRDQIPILLGMLAAVVAAQQAGGNSKGDATMATITSAMGLMQQRQIDYTRSNESEADRLGIRTLARSGYDVDAMAGFFERMSVAMRANEGGYSAPDFLQTHPVTVTRISEAKARAEQMKKNTVVLTTSVPGGSRQERVDPADPSLSEPLSHNGNALLPYALRLPVDALSRGADQQGFDWAKERLRVLSAATPDAAIREYENLRRSAKQGLSDAQRYGLALAKLRNSGGRPSEPVAELSSLLEAHPDNLWLALGLSQAQARVGQREAANARFDALLKQLPNNRAVALTYASALNEQASKESGQRARQVLEPLVHRSSDDPLLQQSYARACELSGDQLRASEAYAEAAFLNGRAEQALIQLEALKKKDLDYVTRARVDARIAAITPTVLELRRQGIRDPDLSTR”, for which the protein production result is “failed”.

Regarding “MIHVREFQASDSDVVLHLLDLKDIINSSSFSEKVFQLSESGDFLGLVAEANQSGKHQVVGCAFLRLLETISRGLHCQIEELAIDKAWLHQGVGKSLMETATSWAKERGVGDIYVDSPYASIAVKEGIDSVFVRDEVLEVAQQYEAEKEELQESLKKQYNTTISKLEKEYEAKKQQQDETIHNLQTQLEDATQYLEEQQAEENELLNIDPSSPRNHTGPYPRGRGFWGTLCFPIRKTCGPGSCLRLPSGPASVRGSTDRSN”, the protein production result is given as “not failed”.

With “MIHWRNCLASAVPKLAVIAHDLIQVWVCWVALHAARYSMLVHPPGLPYVDWRTLVVLIAQAVVFWRVGLYRGLWRFASVPDLWNIFKSAFSGLIVIVLVLSVTRFEGVPLSVLVVYPFALSVLLGMPRLLYRAWKDYQLIHPVDSSERVLILGAGRTAEALVRDMRRTGAFVPVGFIDDAVYLRGAKIQGLNVLGRLEEVSTIARETAAKLLVIAIPSLDAAGMQRVVAMCESTGLPFRMVPKLIDVLEGRTLPCQLKEVSIEDLLNRKPVIPDWRLIRSWLSGKTVMVTGGGGSIGSEVCRQCARHGASRVVIVEIDELALLTIHSDLRRLFPDIEVLPILGDCGDAAVIAHALRCVRPDAVFHAAAYKQVPLLEEQLREAVRNNVLATENVARHCVAAKIQTFVFISTDKAVEPVNVLGATKRYAEMVCQSFDAKSTGTRFVTVRFGNVLDSAGSVVPLFREQIRQGGPVTVTHPDVTRYFMTISEACQLILQAAALASHGAIYTLDMGEPVRINLLAEQMIRLAGKQPGRDIVIVYTGLRPGEKMHETLFYADENYRPTAHPNILEADVRTFPQEQVLQSVMRLREAVQHYDTVEIESVISMLMPDFHAARHKKETRFETVVPFPAREVRRL”, the protein production result is given as “failed”.

For the sequence “MIIAIPVSENRGKDSPISEHFGRAPYFAFVKVKNNAIADISVEENPLAQDHVHGAVPNFVKEKGAELVIVRGIGRRAIAAFEAMGVKVIKGASGTVEEVVNQYLSGQLKDSDYEVHDHHHHEHH”, the protein production entry is “not failed”.

In the case of “MIIDDIINKIKSSNKIAISFHISPDGDSIGSSLGLLNGLRSIGKETYILSKEVVPESFEFLNFAREIDGNHFEVEDNTDLLITLDCGNIERLNFDTSDMISEDKKYTVINIDHHVTNDSFGDLNYINTKAASVGEIVYDLLSKMNISIDRTIAACLYTSILTDTGSFRFSNTTLNTHVVAGNLISTGLDFSEIHRKIFDNKKFEALKLQALVLNDMYLTFNNKLCVMKVTHDFIEKANAEDVDTGDLVSLGLKVNTAEVCMLLKEKDDCIKVSLRSKSYVDVRKIAEKFGGGGHIRAAGLSINSNILDAEKMILSEIQGELLEHHHHHH”, the protein production result is “failed”.

As for “MIIGCSASQKLAASVADLLDEPLCPVETRKFPDGERYIRVKEEVEGEVTVVQSTGYPQDENLMELLFMIENLKDLGADYVRAAIPYFGYGRQERRFKSGEAVSAKIVAHLLEAAGADEIVTVNLHENCLSEFFRVPVRELSAMPLIAEHISFLDDPVIIAPDKGALGHAREVSDILGCECDYMEKVRISPEVVETRVSDLDVEGKDAVVVDDIISTGGTIVNAAGILGKCGASSITVCCVHPVLVEDALLKIFSAGVERVIATDTLKSDVSEISVAPLIADVMKD”, the protein production result is given as “failed”.

In the case of “MIIIKNGALVTPQGLRRADLAMEGDKIVRIAAAIEPGEDDTVQDATDCWVFPGFIDGHTHMQCWTGMDWTADSFETGTRAAVCGGTTTIVDYATADRGVTMPDALVEWHHRADGTCTANYAFHMALAEWNERNRADLSAMREAGVSSFKTYFAYDHLRLDDAETLEVLEELKRVGGILCVHCENGTLVNALQKRVFEQGIHGPEGHALSRPDVCEGEAVSRLLYLAHLAGDAPVNVVHLSTKLGLEAIRAAKARGQKNIYVETCPQYLMLDDTCYLEQGEDGFAGAKYVMSPPLRHAGDRAALREALVAGEIDTIATDHCSFNLHGQKDRGRDDFRAIPNGGPGVEHRPVAIATSFEGQLGPEDLCRLMSENPARVFGMYPRKGCLAEGADADVCVWDPQARWTIRAATQHQAVDYTPLEGFEAHGRAKAVFVNGVLAARDGEPTGAQPGRYVPR”, the protein production result is “failed”.

Consider “MIILSFYKLLERVICVHSITTYWWKYYLASFFSILVIGIVISSLNINIPYFFLIQIGLVFSLWYLISPIIMILVFKMRRAPQDVTFMVEDLSKKYNVKLSKVYIINDNFLNAFAFGNIIFRGIAVTSPLYESLVQEELAAVLSHEIAHIKNYDPEVMLLTIFSINSIYAALIYYLPLVSLFFLIIYFVILLPSVFYVHRKIEKRADLTAVKVNPDITYWLESSLIKIGYLSRSIPTNMLRYVPPIQIFLAKEFIVNHIVDEKSVLSFRTHPSLKERLLYLSQYEKQKMYYI”, for which the protein production result was “failed”.

“MIIMLSEYLEEFKEYLERFKNIDINFSDVLKMSKKFIIWRLKQIFGDSSTIFTNISSEITIFDKIFQMIDYDIDGEVEKRLPKDESRFMIGVRREKEIEIKKEIITNLLDFLLIILLSHTPYFNAFVRKYAEIKKIKVIKKLPNKISVWEFIKIASRSRINDLHLERLDLENGFVDITKIKEIFAKEIIRVELMKLGENIKKRKLPDDSVVKELLNEISDYLKDKVKYEQISGIKALNYKGNIPLEWHPPCIRGILNDILSGGSPSHYARRSFVVYWFCAKFNPNLRPLDKNGNLVNVSATDIASEEEIERFIDELIEMLFKNVEDFDEKKTRYYIMHNIGYKVGHGRLTHCEYCKNWQDDGGKGLSYYCKPDELCKKKFIIHPLDYLCYNINKHLKKERFKKIKKEDKNGDNKLEHHHHHH”: the protein production entry was “not failed”.

On to “MIIMVTEVDVLVIGAGPAGSTAAKHAALGGADVLLIDKKSEIGAPKRCAEGVSIGGLESLGIEPNPRWITKKLDGVRMVSPNGTDVWLTSDKVELPEAGYILERKVFDKFMAMDAARAGSRIMVKTIATGMERTDDGYLVSAECMGEKFEIKARIVIAADGPESRVARWAGLNTATRPKDMESAAQFEMVGVEMEDNNCIEFYFGSVAPGGYALDIPEGDDIANVGLGVLSTETDKSAYEHLLEFVESCPATRNAQPVELNIGGDPVGGMPKKLVADSLMVVGDAAGQVNPLTGGGIISGMKGGMLAGQVAAAAVSEGDVTARRLGEYERLCREEIGDEISKYLKVKEYLLTLSDSELDSIAEAFQDVEFEKVSTTELVKKLIKVSPKALLKLGKLFLEHHHHHH”, for which the protein production entry is listed as “failed”.

In the case of “MIIPDLFRLNDWSTRRFNLFIWSILVAYDFSFISNVPLYSIEILSKILGFVILTFIPGYIILRIFKVHDIDRVVTLLLAIGLSLSFIMIFGFTVNMFLPYIGVSKPISTFPLFYSLNISILVLMIIYYFRDKKFNSSQNQLRITFSPMLFYFILLPLFSILGTESVNHYNFNMPVLILLFVISLSPILIALDRISRDLYPFMILSISLAILYNMNLISTHLWSYDIFYEAHTSKYVLENGIWNPGNKTMVPLLLFTILSPVYSLICDLNVIWVFKIIFPFFFSLTPLALYYVYKELDFGNYKIDSEIAMLSVFVFIFFYGFYKDMPDKQHIAELFLALILILSIFNTQKRILLFIFSFSLVVSHYGISYFFVFSLIFVSMMSRFRVNADTSFLTPTYTLLFSVLTFSWYIYISAGDVFEVITQVGYHFLSGIKDIFQANNDGRSASAYLSYLSNGILWVIYMLIHLILQFFIFIGVLNLLLSIMHNKTKSFEIALLTIIFYAFLFVQFFKTYGMGLDRILQITLILLSPLSIWGYSFCVKNLNSVYARIISKRIYRNKENGNLNLIFESTLTRNEAINKNHITNLSKKARLCFSIFLMIFFVFNSGFIFWMTGYPLPGYCININPNSGWPVYSESEICGVDWLKSHENEHNRIAVFNQWDTIKSRDGLLVAENFYSKDLIPIQTNTTTLYNSYLFLGKYSVDKVEDGEEDVDLQDTLFYNSTLKNSNKIYNSEKSHLYLAE”, the protein production result was “failed”.

Regarding “MIIPMNNKHPLPTPLVSIIIPVYNVEKYLYRCVKSILSQDYYDYEIILVDDGSTDGSGMICDELTEQHGHISVIHKPNGGQGSARNAGLNHAKGKYIWFIDSDDYISPHSLSVIMSQITQGDFDALFFPYIKSNGNILIGEAVGKYHAGVYRGQQLLLEGLVNMSMCTIVSLRSRWIDNRIFFREDIHFEDFEINPRVLKFLERAIFLDSNIIPYIYYTRLGSTMNQLDPQKRMRQTEDFLRIEKSWKEWFNLDSPEPNSYDMLMLRTGTNMLHRNLLNFVRNSNFSISTKLKLYAQYRKKGVFSWFYNGYRRDPYVGCTSVRVFWNTIGRSYILFSLFSIVEEIWKKIRK”, the protein production entry is reported as “failed”.

“MIIRIKHYGEVKIEDSKNLLLNLIENRIGIDNICNGKGTCGKCKVRFRQGVPEATSADLRYLSVEELEEGVRLACQVKPQKGMEIDVTLSNSFDRKNTVLRRDDQVALDSGLSGISLTIPQPSLEDERGDWDRIIDEYRKVMPEQGLALPSLGVLERLPGTLRKLDYRITAVTWQNRVIDVQPGHDTALHGLAVDIGTTSVAVALIDLKTGEVLGSVSAENGQTAFGGDVISRIAYAGEGLKNRLQLTAAVRSTINTLIDELVLQHEIVRNSIYKMTIVANTTMSHLFLGLDVSNLAVSPYVSVYNQALEFSAKELGLGSNPEAVVQILPNIGSFVGGDTVGALLGAPEVLTQGNHLLLDLGTNCELVLKTEKMMLACSTAAGPAFEGAGIFHGMRAKPGAIEGIRIHEEGVELRVIGDEEALGICGSGLIDGIAQMRQAGIINRKGAFVDPDHKDCSLSDELKSRIRKKEDYWEFVFAFGRQHKKDISLGQRDIEALQLAKGAVCAGIKTLVSLAGISLRDLDSIVMAGTFATYLKKESILSIGLTPHTDPEKIKMAGNAAHLGAIRTLLNQGTFAEGAELARRIQHIELGGDKTFTNFFMRSMYLEPTD”: the protein production result is “failed”.

“MIIRPIIKNDDQAVAQLIRQSLRAYDLDKPDTAYSDPHLDHLTSYYEKIEKSGFFVIEERDEIIGCGGFGPLKNLIAEMQKVYIAERFRGKGLATDLVKMIEVEARKIGYRQLYLETASTLSRATAVYKHMGYCALSQPIANDQGHTAMDIWMIKDL”: the protein production entry is recorded as “failed”.

On to “MIISFVIQVGLFPDSLERKVIRHIENGDHLTCFLFLNYLHVLIQGFSFGGYRVLYKERELSRICPAIRFQRKSFTEVRMILSHHPSFSLVNDPQEIAQIAEWGEEQIAQYKERVTGEGKQRDIDRGKPMAQASLDEAAFLLNLASLEGTWDESLERVAQCYKEAGLNDIAKFVLYRD”, for which the protein production result is recorded as “failed”.

Values taken from a protein production outcome set (Wang et al. 2014).
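Note: failed if final PepcDB status was selected cloned or expressed and not failed if soluble or beyond.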
